The results in this text go back to US20230138315A1 (JIANGSU HENGRUI MEDICINE, published 2023).

Common to all, as to assay: HTRF; biotin-labelled antigen with Streptavidin-Tb cryptate
A general note: In TR-FRET formats the signal depends on donor and acceptor labels being close together.

One experiment deals with T1, rat ANGPTL3(17-455)-His (rat, biotin-labelled in the ELISA and HTRF assays (sites not given)).
T1 construct: also called full-length rat ANGPTL3
T1 chain: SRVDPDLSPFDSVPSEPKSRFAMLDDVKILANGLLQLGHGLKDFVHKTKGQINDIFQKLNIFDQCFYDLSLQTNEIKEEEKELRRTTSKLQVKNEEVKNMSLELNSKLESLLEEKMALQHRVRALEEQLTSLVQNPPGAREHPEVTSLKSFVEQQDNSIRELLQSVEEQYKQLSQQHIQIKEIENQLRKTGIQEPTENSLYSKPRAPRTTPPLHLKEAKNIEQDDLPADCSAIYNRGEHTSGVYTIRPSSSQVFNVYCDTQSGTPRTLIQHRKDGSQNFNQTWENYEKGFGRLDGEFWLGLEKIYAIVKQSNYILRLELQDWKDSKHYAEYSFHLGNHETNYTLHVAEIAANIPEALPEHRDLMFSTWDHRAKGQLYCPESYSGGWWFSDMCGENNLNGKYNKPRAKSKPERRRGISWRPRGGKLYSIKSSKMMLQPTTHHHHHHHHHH

In experiment [1] the target is T2, human-ANGPTL3(17-460)-His (human, UniProt Q9Y5C1 17-460, biotin-labelled (labelling kit, sites not stated)).
T2 construct: also called full-length human ANGPTL3
T2 sequence: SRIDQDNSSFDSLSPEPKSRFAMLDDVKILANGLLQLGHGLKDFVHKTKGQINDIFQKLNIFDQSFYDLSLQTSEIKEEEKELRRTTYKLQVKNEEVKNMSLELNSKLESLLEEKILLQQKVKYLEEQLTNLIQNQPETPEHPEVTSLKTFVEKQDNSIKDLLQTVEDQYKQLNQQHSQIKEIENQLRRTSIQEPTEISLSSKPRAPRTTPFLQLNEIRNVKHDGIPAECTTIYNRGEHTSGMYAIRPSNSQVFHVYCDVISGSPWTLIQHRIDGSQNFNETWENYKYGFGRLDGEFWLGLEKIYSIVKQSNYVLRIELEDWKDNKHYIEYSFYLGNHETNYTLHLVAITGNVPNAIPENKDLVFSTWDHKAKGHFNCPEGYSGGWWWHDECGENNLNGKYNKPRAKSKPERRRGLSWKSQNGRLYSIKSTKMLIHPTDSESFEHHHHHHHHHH

The target in experiment [2] is T3, mouse ANGPTL3(17-455)-His (mouse, UniProt Q9R182 17-455, biotin-labelled in the ELISA and HTRF assays (sites not given)).
T3 construct: also called full-length mouse ANGPTL3
T3 sequence: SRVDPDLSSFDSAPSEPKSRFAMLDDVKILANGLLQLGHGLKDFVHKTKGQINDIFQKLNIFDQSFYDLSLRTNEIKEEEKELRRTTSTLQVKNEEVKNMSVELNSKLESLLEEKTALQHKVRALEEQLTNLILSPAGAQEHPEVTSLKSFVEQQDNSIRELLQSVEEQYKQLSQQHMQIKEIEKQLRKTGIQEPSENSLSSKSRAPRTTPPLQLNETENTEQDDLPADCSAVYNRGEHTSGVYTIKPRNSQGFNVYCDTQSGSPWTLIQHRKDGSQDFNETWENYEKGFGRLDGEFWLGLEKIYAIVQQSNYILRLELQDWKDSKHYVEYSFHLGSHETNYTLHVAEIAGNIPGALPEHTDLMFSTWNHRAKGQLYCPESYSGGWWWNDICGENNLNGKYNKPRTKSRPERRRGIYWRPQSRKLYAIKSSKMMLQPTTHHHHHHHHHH

Experiment [3] deals with T4, cynomolgus monkey ANGPTL3(17-460)-His (cynomolgus monkey, UniProt Q9Y5C1 17-460 (human entry), biotin-labelled in the ELISA and HTRF assays (sites not given)).
T4 construct: also called full-length cynomolgus monkey ANGPTL3; Cyno ANGPTL3
T4 chain: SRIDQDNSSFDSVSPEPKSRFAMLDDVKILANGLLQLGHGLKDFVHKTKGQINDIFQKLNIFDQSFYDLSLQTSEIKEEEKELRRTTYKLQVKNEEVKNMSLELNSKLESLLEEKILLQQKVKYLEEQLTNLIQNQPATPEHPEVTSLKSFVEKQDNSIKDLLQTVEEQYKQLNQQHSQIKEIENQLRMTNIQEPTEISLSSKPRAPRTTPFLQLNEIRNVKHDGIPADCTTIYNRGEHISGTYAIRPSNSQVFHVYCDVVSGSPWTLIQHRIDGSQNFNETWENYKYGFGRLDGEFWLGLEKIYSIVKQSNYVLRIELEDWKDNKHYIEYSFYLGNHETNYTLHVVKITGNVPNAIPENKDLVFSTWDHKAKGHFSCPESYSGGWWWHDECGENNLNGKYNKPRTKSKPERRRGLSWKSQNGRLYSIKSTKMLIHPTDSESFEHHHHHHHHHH

B1: P8BG (antibody, human IgG4 S228P, kappa, V domains shown)
VH: QVQLVQSGAEVKKPGASVKVSCKASGYTFTSYDINWVRQAPGQGLEWVGLINPREDSTSYAQKFQGRVTMTRDTSTSTMYMELSSLRSEDTAVYFCARDLGSIREVLYYGMDVWGQGTTVTVSS
VL: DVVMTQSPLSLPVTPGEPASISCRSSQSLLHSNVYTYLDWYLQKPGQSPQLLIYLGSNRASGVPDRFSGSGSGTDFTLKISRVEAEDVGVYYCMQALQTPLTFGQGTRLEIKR
notes: also called anti-ANGPTL3 antibody P8BG; P8B (variable regions)
As usually defined, the EC50 is the concentration giving half of the maximal effect. As to B1, the EC50 was found to be 362 pM with rat ANGPTL3(17-455)-His, 277 pM in experiment [1], 321 pM in experiment [2] and 360 pM in experiment [3].
